Results on one molecule are retold here after publication PMC7166197 (Molecular cell, 2020).

This test deals with RNA polymerase β subunit of Escherichia coli (Escherichia coli, UniProt P0A8V2 1-1342). Nature of the test: cryo-EM structure.
RNA polymerase β subunit of Escherichia coli, sequence (P0A8V2 whole entry): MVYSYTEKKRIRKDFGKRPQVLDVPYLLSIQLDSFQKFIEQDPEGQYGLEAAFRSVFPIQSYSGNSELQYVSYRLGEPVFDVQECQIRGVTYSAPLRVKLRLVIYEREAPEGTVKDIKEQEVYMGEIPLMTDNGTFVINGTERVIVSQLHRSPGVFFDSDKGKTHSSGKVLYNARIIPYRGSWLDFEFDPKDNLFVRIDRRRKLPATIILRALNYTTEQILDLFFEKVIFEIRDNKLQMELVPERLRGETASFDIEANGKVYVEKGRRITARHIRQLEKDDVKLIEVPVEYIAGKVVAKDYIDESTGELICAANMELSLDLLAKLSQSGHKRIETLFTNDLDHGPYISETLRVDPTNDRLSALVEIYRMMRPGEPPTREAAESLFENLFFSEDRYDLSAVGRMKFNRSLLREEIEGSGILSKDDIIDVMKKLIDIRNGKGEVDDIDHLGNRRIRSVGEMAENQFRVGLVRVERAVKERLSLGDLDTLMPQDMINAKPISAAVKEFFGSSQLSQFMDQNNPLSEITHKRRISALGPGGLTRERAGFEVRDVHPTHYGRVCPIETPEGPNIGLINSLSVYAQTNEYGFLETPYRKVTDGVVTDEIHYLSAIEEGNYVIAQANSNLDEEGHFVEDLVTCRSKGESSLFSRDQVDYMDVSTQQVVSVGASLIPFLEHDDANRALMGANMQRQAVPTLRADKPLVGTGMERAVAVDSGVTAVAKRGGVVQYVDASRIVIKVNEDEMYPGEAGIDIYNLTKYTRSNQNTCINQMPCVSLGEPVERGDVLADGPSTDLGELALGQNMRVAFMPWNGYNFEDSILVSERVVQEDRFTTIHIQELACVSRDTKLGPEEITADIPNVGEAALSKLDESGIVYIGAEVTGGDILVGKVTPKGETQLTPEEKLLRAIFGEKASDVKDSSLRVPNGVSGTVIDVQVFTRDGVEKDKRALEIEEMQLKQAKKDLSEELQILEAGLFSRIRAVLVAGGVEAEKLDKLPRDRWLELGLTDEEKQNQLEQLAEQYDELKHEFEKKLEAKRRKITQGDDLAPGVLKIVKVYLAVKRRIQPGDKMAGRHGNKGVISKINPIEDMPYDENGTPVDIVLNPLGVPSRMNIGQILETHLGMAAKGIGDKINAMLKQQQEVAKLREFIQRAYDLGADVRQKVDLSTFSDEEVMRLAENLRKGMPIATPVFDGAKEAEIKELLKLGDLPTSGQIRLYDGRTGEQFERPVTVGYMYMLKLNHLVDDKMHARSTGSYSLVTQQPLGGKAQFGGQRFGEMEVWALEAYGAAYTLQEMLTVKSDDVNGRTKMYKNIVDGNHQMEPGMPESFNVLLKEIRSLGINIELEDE

B1: TraR (natural protein, Escherichia coli)
chain: SDEADEAYSVTEQLTMTGINRIRQKINAHGIPVYLCEACGNPIPEARRKIFPGVTLCVECQAYQERQRKHYA
As for B1, the binding result was “binds”.
